Data taken from patent US20230279138A1 (CHIA TAI TIANQING PHARMACEUTICAL GROUP, published 2023).
Positions count from the first letter of the chain named. Numbers in names are those of the source.

T1: CD20 on Raji cells (CD20+/CD3- cells) (human, UniProt P11836 1-297)
T1 construct: whole, on cells; Raji, Ramos and NAMALWA in the killing assays; also called Ramos; NAMALWA
T1 sequence (looked up): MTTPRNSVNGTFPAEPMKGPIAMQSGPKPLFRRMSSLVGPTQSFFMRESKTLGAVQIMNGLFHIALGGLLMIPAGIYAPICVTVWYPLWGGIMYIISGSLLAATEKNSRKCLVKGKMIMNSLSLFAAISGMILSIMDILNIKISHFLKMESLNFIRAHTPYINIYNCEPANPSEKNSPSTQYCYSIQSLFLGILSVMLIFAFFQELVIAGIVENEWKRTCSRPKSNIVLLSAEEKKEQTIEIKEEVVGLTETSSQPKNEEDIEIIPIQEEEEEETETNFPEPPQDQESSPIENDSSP

B1: W3278-T2U3.E17R-1.uIgG4.SP (bispecific antibody)
heavy 1: QVQLVQSGAEVKKPGSSVKVSCKASGYSFTTYYIHWVRQAPGQGLEWMGWIFPGNDNIKYSEKFKGRVTITADKSTSTAYMELSSLRSEDTAVYYCAIDSVSIYYFDYWGQGTLVTVSSASTKGPSVFPLAPCSRSTSESTAALGCLVKDYFPEPVTVSWNSGALTSGVHTFPAVLQSSGLYSLSSVVTVPSSSLGTKTYTCNVDHKPSNTKVDKRVESKYGPPCPPCPAPEFLGGPSVFLFPPKPKDTLMISRTPEVTCVVVDVSQEDPEVQFNWYVDGVEVHNAKTKPREEQFNSTYRVVSVLTVLHQDWLNGKEYKCKVSNKGLPSSIEKTISKAKGQPREPQVYTLPPCQEEMTKNQVSLWCLVKGFYPSDIAVEWESNGQPENNYKTTPPVLDSDGSFFLYSRLTVDKSRWQEGNVFSCSVMHEALHNHYTQKSLSLSLG
heavy 2: EVQLVESGGGLVQPGRSLRLSCAASGFTFNDYAMHWVRQAPGKGLEWVSTISWNSGSIGYADSVKGRFTISRDNAKKSLYLQMNSLRAEDTALYYCAKDIQYGNYYYGMDVWGQGTTVTVLEDLKNVFPPEVAVFEPSEAEISHTQKATLVCLATGFYPDHVELSWWVNGKEVHSGVCTDPQPLKEQPALQDSRYALSSRLRVSATFWQNPRNHFRCQVQFYGLSENDEWTQDRAKPVTQIVSAEAWGRYGPPCPPCPAPEFLGGPSVFLFPPKPKDTLMISRTPEVTCVVVDVSQEDPEVQFNWYVDGVEVHNAKTKPREEQFNSTYRVVSVLTVLHQDWLNGKEYKCKVSNKGLPSSIEKTISKAKGQPREPQVCTLPPSQEEMTKNQVSLSCAVKGFYPSDIAVEWESNGQPENNYKTTPPVLDSDGSFFLVSRLTVDKSRWQEGNVFSCSVMHEALHNHYTQKSLSLSLG
light 1: not shown
light 2: EIVLTQSPATLSLSPGERATLSCRASQSVSSYLAWYQQKPGQAPRLLIYDASNRATGIPARFSGSGSGTDFTLTISSLEPEDFAVYYCQQRSNWPITFGQGTRLEIKPDIQNPDPAVYQLRDSKSSDKSVCLFTDFDSQTQVSQSKDSDVYITDKCVLDMRSMDFKSNSAVAWSQKSDFACANAFQNSIIPEDTFFPSPESS
notes: Human IgG4 with S228P, knobs-into-holes; WuXiBody format, in which one arm carries TCR constant domains; also called W3278 BsAb; WBP3278 BsAb
B2: W3278-U3T2.F18R-1.uIgG4.SP (bispecific antibody)
heavy 1: EVQLVESGGGLVQPGRSLRLSCAASGFTFNDYAMHWVRQAPGKGLEWVSTISWNSGSIGYADSVKGRFTISRDNAKKSLYLQMNSLRAEDTALYYCAKDIQYGNYYYGMDVWGQGTTVTVSSASTKGPSVFPLAPCSRSTSESTAALGCLVKDYFPEPVTVSWNSGALTSGVHTFPAVLQSSGLYSLSSVVTVPSSSLGTKTYTCNVDHKPSNTKVDKRVGGGGSGGGGSQVQLVQSGAEVKKPGSSVKVSCKASGYSFTTYYIHWVRQAPGQGLEWMGWIFPGNDNIKYSEKFKGRVTITADKSTSTAYMELSSLRSEDTAVYYCAIDSVSIYYFDYWGQGTLVTVLEDLKNVFPPEVAVFEPSEAEISHTQKATLVCLATGFYPDHVELSWWVNGKEVHSGVCTDPQPLKEQPALQDSRYALSSRLRVSATFWQNPRNHFRCQVQFYGLSENDEWTQDRAKPVTQIVSAEAWGRYGPPCPPCPAPEFLGGPSVFLFPPKPKDTLMISRTPEVTCVVVDVSQEDPEVQFNWYVDGVEVHNAKTKPREEQFNSTYRVVSVLTVLHQDWLNGKEYKCKVSNKGLPSSIEKTISKAKGQPREPQVYTLPPCQEEMTKNQVSLWCLVKGFYPSDIAVEWESNGQPENNYKTTPPVLDSDGSFFLYSRLTVDKSRWQEGNVFSCSVMHEALHNHYTQKSLSLSLG
heavy 2: EVQLVESGGGLVQPGRSLRLSCAASGFTFNDYAMHWVRQAPGKGLEWVSTISWNSGSIGYADSVKGRFTISRDNAKKSLYLQMNSLRAEDTALYYCAKDIQYGNYYYGMDVWGQGTTVTVSSASTKGPSVFPLAPCSRSTSESTAALGCLVKDYFPEPVTVSWNSGALTSGVHTFPAVLQSSGLYSLSSVVTVPSSSLGTKTYTCNVDHKPSNTKVDKRVESKYGPPCPPCPAPEFLGGPSVFLFPPKPKDTLMISRTPEVTCVVVDVSQEDPEVQFNWYVDGVEVHNAKTKPREEQFNSTYRVVSVLTVLHQDWLNGKEYKCKVSNKGLPSSIEKTISKAKGQPREPQVCTLPPSQEEMTKNQVSLSCAVKGFYPSDIAVEWESNGQPENNYKTTPPVLDSDGSFFLVSRLTVDKSRWQEGNVFSCSVMHEALHNHYTQKSLSLSLG
light 1: not shown
light 2: DIVMTQSPDSLAVSLGERATINCKSSQSLLNSRTRKNYLAWYQQKPGQPPKLLIYWASTRKSGVPDRFSGSGSGTDFTLTISSLQAEDVAVYYCTQSFILRTFGGGTKVEIKPDIQNPDPAVYQLRDSKSSDKSVCLFTDFDSQTQVSQSKDSDVYITDKCVLDMRSMDFKSNSAVAWSQKSDFACANAFQNSIIPEDTFFPSPESS
notes: Human IgG4 S228P, knobs-into-holes; also called W3278 BsAb; WBP3278 BsAb
B3: W3278-T3U2.F17R-1.uIgG4.SP (bispecific antibody)
heavy 1: QVQLVQSGAEVKKPGSSVKVSCKASGFAFTDYYIHWVRQAPGQGLEWMGWISPGNVNTKYNENFKGRVTITADKSTSTAYMELSSLRSEDTAVYYCARDGYSLYYFDYWGQGTLVTVLEDLKNVFPPEVAVFEPSEAEISHTQKATLVCLATGFYPDHVELSWWVNGKEVHSGVCTDPQPLKEQPALQDSRYALSSRLRVSATFWQNPRNHFRCQVQFYGLSENDEWTQDRAKPVTQIVSAEAWGRGGGGSGGGGSQVQLQQPGAELVKPGASVKMSCKASGYTFTSYNMHWVKQTPGRGLEWIGAIYPGNGDTSYNQKFKGKATLTADKSSSTAYMQLSSLTSEDSAVYYCARSTYYGGDWYFNVWGAGTTVTVSAASTKGPSVFPLAPCSRSTSESTAALGCLVKDYFPEPVTVSWNSGALTSGVHTFPAVLQSSGLYSLSSVVTVPSSSLGTKTYTCNVDHKPSNTKVDKRVESKYGPPCPPCPAPEFLGGPSVFLFPPKPKDTLMISRTPEVTCVVVDVSQEDPEVQFNWYVDGVEVHNAKTKPREEQFNSTYRVVSVLTVLHQDWLNGKEYKCKVSNKGLPSSIEKTISKAKGQPREPQVYTLPPCQEEMTKNQVSLWCLVKGFYPSDIAVEWESNGQPENNYKTTPPVLDSDGSFFLYSRLTVDKSRWQEGNVFSCSVMHEALHNHYTQKSLSLSLG
heavy 2: QVQLQQPGAELVKPGASVKMSCKASGYTFTSYNMHWVKQTPGRGLEWIGAIYPGNGDTSYNQKFKGKATLTADKSSSTAYMQLSSLTSEDSAVYYCARSTYYGGDWYFNVWGAGTTVTVSAASTKGPSVFPLAPCSRSTSESTAALGCLVKDYFPEPVTVSWNSGALTSGVHTFPAVLQSSGLYSLSSVVTVPSSSLGTKTYTCNVDHKPSNTKVDKRVESKYGPPCPPCPAPEFLGGPSVFLFPPKPKDTLMISRTPEVTCVVVDVSQEDPEVQFNWYVDGVEVHNAKTKPREEQFNSTYRVVSVLTVLHQDWLNGKEYKCKVSNKGLPSSIEKTISKAKGQPREPQVCTLPPSQEEMTKNQVSLSCAVKGFYPSDIAVEWESNGQPENNYKTTPPVLDSDGSFFLVSRLTVDKSRWQEGNVFSCSVMHEALHNHYTQKSLSLSLG
light 1: B2 light 2 with K61Q, F98H, I99T
light 2: QIVLSQSPAILSASPGEKVTMTCRASSSVSYIHWFQQKPGSSPKPWIYATSNLASGVPVRFSGSGSGTSYSLTISRVEAEDAATYYCQQWTSNPPTFGGGTKLEIKRTVAAPSVFIFPPSDEQLKSGTASVVCLLNNFYPREAKVQWKVDNALQSGNSQESVTEQDSKDSTYSLSSTLTLSKADYEKHKVYACEVTHQGLSSPVTKSFNRGEC
notes: also called W3278 BsAb; WBP3278 BsAb
B4: Anti-CD3 Fab (T2) (Fab, V domains shown)
VH: QVQLVQSGAEVKKPGSSVKVSCKASGYSFTTYYIHWVRQAPGQGLEWMGWIFPGNDNIKYSEKFKGRVTITADKSTSTAYMELSSLRSEDTAVYYCAIDSVSIYYFDYWGQGTLVTVSS
VL: DIVMTQSPDSLAVSLGERATINCKSSQSLLNSRTRKNYLAWYQQKPGQPPKLLIYWASTRKSGVPDRFSGSGSGTDFTLTISSLQAEDVAVYYCTQSFILRTFGGGTKVEIK
notes: Parental antibody tested as a Fab; The variable domains are tied to it through the clone naming: T2 is the anti-CD3 portion of W3278-T2U3 and W3278-U3T2; also called parental anti-CD3 antibody T2
B5: Anti-CD3 Fab (T3) (Fab, V domains shown)
VH: QVQLVQSGAEVKKPGSSVKVSCKASGFAFTDYYIHWVRQAPGQGLEWMGWISPGNVNTKYNENFKGRVTITADKSTSTAYMELSSLRSEDTAVYYCARDGYSLYYFDYWGQGTLVTVSS
VL: B4 VL with K61Q, F98H, I99T
notes: Parental antibody tested as a Fab; The variable domains are tied to it through the clone naming: T3 is the anti-CD3 portion of W3278-T3U2 and W3278-U2T3; also called parental anti-CD3 antibody T3
B6: Anti-CD20. IgG4 (U2) (antibody, V domains shown)
VH: QVQLQQPGAELVKPGASVKMSCKASGYTFTSYNMHWVKQTPGRGLEWIGAIYPGNGDTSYNQKFKGKATLTADKSSSTAYMQLSSLTSEDSAVYYCARSTYYGGDWYFNVWGAGTTVTVSA
VL: QIVLSQSPAILSASPGEKVTMTCRASSSVSYIHWFQQKPGSSPKPWIYATSNLASGVPVRFSGSGSGTSYSLTISRVEAEDAATYYCQQWTSNPPTFGGGTKLEIK
notes: Tested as IgG4; also called parental anti-CD20 antibody U2

Each binder was assayed against T2, CD3 on Jurkat cells (CD3+/CD20- cells) (human, UniProt P07766 23-207; P04234 22-171; P09693 23-182) (assay: flow cytometry on Jurkat 2B8 cells (CD3+/CD20-)).
T2 construct: whole, on cells; also called Jurkat 2B8
T2 sequence (P07766 23-207, chain 1 of 3): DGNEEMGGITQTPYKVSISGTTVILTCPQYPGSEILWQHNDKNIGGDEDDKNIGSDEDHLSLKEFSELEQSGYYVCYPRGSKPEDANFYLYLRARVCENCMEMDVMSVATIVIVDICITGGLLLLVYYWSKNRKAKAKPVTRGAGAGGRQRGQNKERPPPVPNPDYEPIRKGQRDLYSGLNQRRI
T2 sequence (P04234 22-171, chain 2 of 3): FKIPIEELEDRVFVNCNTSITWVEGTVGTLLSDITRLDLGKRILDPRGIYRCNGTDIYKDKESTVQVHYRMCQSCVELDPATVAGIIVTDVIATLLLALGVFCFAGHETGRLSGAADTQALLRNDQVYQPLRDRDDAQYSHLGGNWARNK
T2 sequence (P09693 23-182, chain 3 of 3): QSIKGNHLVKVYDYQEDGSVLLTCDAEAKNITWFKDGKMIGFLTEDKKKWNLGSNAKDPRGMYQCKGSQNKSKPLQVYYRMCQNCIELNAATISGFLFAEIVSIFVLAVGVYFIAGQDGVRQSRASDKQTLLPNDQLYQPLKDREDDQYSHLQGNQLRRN
Procedure: (§1) After incubation, the cells were washed twice with cold 1% BSA/1×PBS. […] After being washed twice, the geometric mean fluorescence (MFI) of the stained cells was measured using a FACS Canto II […] (BD Biosciences). Wells containing no antibody or containing only fluorescent secondary antibody were used to establish background fluorescence. The EC50 values for cell binding were determined using GraphPad Prism 5 software (GraphPad Software, La Jolla, Calif.); each value was calculated by four-parameter non-linear regression analysis.
With B1 the EC50 was 129 nM and the “TOP MFI” value was 3880 MFI. With B2 the EC50 was 26.6 nM and the “TOP MFI” value was 536 MFI. In the case of B3, the EC50 is reported as 17.3 nM and the “TOP MFI” value is reported as 7360 MFI. In the case of B4, the EC50 is reported as 33 nM and the “TOP MFI” value is reported as 3210 MFI. With B5 the EC50 was 43.7 nM and the “TOP MFI” value was 3800 MFI.

What follows are binders tested against T1, CD20 on Raji cells (CD20+/CD3- cells) (assay: flow cytometry on Raji cells (CD20+/CD3-)).
Procedure: as §1
B1 was tested, and the EC50 was 13.2 nM and the “TOP MFI” value was 68500 MFI. In the case of B2, the EC50 is reported as 1.3 nM and the “TOP MFI” value is reported as 55400 MFI. B3 was tested, and the EC50 was 85.3 nM and the “TOP MFI” value was 64900 MFI. With B6 the EC50 was 11.4 nM and the “TOP MFI” value was 53500 MFI.
